This data set can be described thus: label from the status in PepcDB records.
As for “MKFFQRTVLEPAYQGAQLHPGKLSGIYQNEILCNSLFHHYKQRTLKLGRELESRLKHLYHLVRMALPGTVSANTTRRSPANSIHTEVQIDSRTDTHLPQVSDDEDLRWIRTGLPHQYHAYLAIDRLKSSHHLAGQSVLCIGGRAALYPNYHQLIEAAGGHFMVFRGGAQDNSECLLALLARVDSIICPVDCINHEDFFTVRRYCQRTGKNCVMLERSDLVTFGKAVETLARGDCHNSETLEHHHHHH”, the protein production entry is reported as “failed”.

Take “MATQARLPLPVGSTTSVSVVIPAKNVAAYVGETLASALAQGEVTEVIVVDDGSTDNTIAIVRAIRDPRLRLMTNDSAGVSAARNLGARHASGEWLLFLDADDRLRPGAVAALLAAARGAPRAVLVYGDYNTIDSEGRQVGRRDLLKGRRKPSGDVLTRLAASNFIVNGGIALARAEAFRAIGGFDTSLRYCEDWHCWCRLAAIGEFEFAPKLLLDYRLHTANTMNAAVRTPQDFFPAIARVFDDGLILARLPEGTAARLRQAAEIHLVTYSAMQAVRFGRYRQAFTYLGMVGRRSLKSLPRSALRVALACFGILEHHHHHH”: the protein production entry is recorded as “failed”.

Turning to “MIHSRTILVPTLLFQLALALPLAAGADSRCDDAKRLAATIPVQADGDTTRKTEDVVLESCADGAAGYFVRGLRAERAGRHDEAIKDYREALRLEPAFPRAQGNLGLALLAKGSHDDAVVELTRAISSDPDPGYHHGLAMIFGQRKIYSLALYHYAEAAKGLPADPVIPTELAALYREMGKVSDAEKQYRKALSLSPSHEEARVGLASLYMAEGRTDRAIEELKQAQIASPGNKEVSSLLAEAYEKKGDRQAADYQSLLAGKQRGVLSDERLRRGDELMQAKEYAKAAEEFKAALREKPDWPEALMRLAEAQTAAGFDDEAITSYKELIRLKLGTGDTHYNLGVLYERKGLIDEAVVEYKQAIHSSPDNGDARRRLADIYALRGSYPQAIEQYRELLKKGDNNPVLHLKLARALLGAKNPKEAMASYQDALKIAPDNLEARRELAALYRKGNQNEEAEKQYKEILRIKKDDAEARNILTALYVKSKKYDELITLLKDGVELAPNDPASHYKLGLIYEFKKDYDAAEQEYKKAVELKGDHAKSLNALGRIYLKTGKISEAKGALEAAKKADPGMEETAVLLSNIKEELSPEPPRYSKKGRKGKASKEAKKSRASKKKSSKKGAKATSKKSSTKSGGKAKKAKKSH”, the protein production result is on record as “failed”.

As to “MSRLSAAAIELFEDLIRQQVEDKAIPSISYGLVDRDGLMGAGHIQRHDRGFVMGDDTCFRIGSITKTFTAVAVMQLAEKGLVDLDVDVSEYLPGFKPQNPFAGREGGPHGAQISLRKLMSHTAGLVREPKSGHYLDAARPPLADTVAELATSTLKQDPSLGQMHYSNAGIAVAGRVIETLTRKSYAEYVSENILKPLGMDQTSSGLAPGIAERLAPADMWTLEGDSPAPVFDLGGPPAGNIYSTTSDMARYVQCLLRGGFAPDGWQIVSPGSLREMWVPIGKRASGERVANTYGLCFGVGDVDGWTSVGHGGAVYGYSSQMILLPAAGVGVLIFSTLDFSNQIGARLGVEGLRIALAERRMGTLPVRPQGLPPVAADQLVALPGHYRHDTSGEVVEVKAKAGKLFLMGEGVPLQIRPVAGSDFTIDGRIYGHGAEYPHMNLSFPAPGALVWKGVNWSRIDALPAEAVPAEIAPHLGEYGPDFNITYLSYSHGELKCLIEYFCTHGCEPVEAGRFRMRGLLYEEEILEIDAIDDHGRRGIRVGPMFLERRHAPAA”, the protein production result is reported as “failed”.

Consider “MALGFGMKMELQQFLDALASSPEKIEFETTMAVIEDNYDFTPAAFTNGNTQNDANENNGSCKIFAFGLLNALDKEATLACFGRFYREDVLLHPENNDHQNIRNFMVTGWEGIQFETSALTAK”, for which the protein production result is listed as “not failed”.

With “MTASTALTVAIWIGVMLIGGIGSVLRFLVDRSVARRLARTFPYGTLTVNITGAALLGFLAGLALPKDAALLAGTGFVGAYTTFSTWMLETQRLGEDRQMVSALANIVVSVVLGLAAALLGQWIAQI”, the protein production result was “failed”.

For the origin of these results see a protein production outcome set (Wang et al. 2014).
